From patent publication US5766897A, “Cysteine-pegylated proteins” (Incyte Pharmaceuticals, Inc., priority 1995, dated 1998)

B1: D147C (conjugate, UniProt P07093 20-398, looked up, variant D147C)
Glia-derived nexin: SHFNPLSLEELGSNTGIQVFNQIVKSRPHDNIVISPHGIASVLGMLQLGADGRTKKQLAMVMRYGVNGVGKILKKINKAIVSKKNKDIVTVANAVFVKNASEIEVPFVTRNKDVFQCEVRNVNFEDPASACDSINAWVKNETRDMICNLLSPDLIDGVLTRLVLVNAVYFKGLWKSRFQPENTKKRTFVAADGKSYQVPMLAQLSVFRCGSTSAPNDLWYNFIELPYHGESISMLIALPTESSTPLSAIIPHISTKTIDSWMSIMVPKRVQVILPKFTAVAQTDLKEPLKVLGITDMFDSSKANFAKITTGSENLHVSHILQKAKIEVSEDGTKASAATTAILIARSSPPWFIVDRPFLFFIRHNPTGAVLFMGQINKP
modifications: PEG
B2: N304C (conjugate, UniProt P07093 20-398, looked up, variant N304C)
Glia-derived nexin: SHFNPLSLEELGSNTGIQVFNQIVKSRPHDNIVISPHGIASVLGMLQLGADGRTKKQLAMVMRYGVNGVGKILKKINKAIVSKKNKDIVTVANAVFVKNASEIEVPFVTRNKDVFQCEVRNVNFEDPASACDSINAWVKNETRDMIDNLLSPDLIDGVLTRLVLVNAVYFKGLWKSRFQPENTKKRTFVAADGKSYQVPMLAQLSVFRCGSTSAPNDLWYNFIELPYHGESISMLIALPTESSTPLSAIIPHISTKTIDSWMSIMVPKRVQVILPKFTAVAQTDLKEPLKVLGITDMFDSSKACFAKITTGSENLHVSHILQKAKIEVSEDGTKASAATTAILIARSSPPWFIVDRPFLFFIRHNPTGAVLFMGQINKP
modifications: PEG
B3: E230C (conjugate, UniProt P07093 20-398, looked up, variant E230C)
Glia-derived nexin: SHFNPLSLEELGSNTGIQVFNQIVKSRPHDNIVISPHGIASVLGMLQLGADGRTKKQLAMVMRYGVNGVGKILKKINKAIVSKKNKDIVTVANAVFVKNASEIEVPFVTRNKDVFQCEVRNVNFEDPASACDSINAWVKNETRDMIDNLLSPDLIDGVLTRLVLVNAVYFKGLWKSRFQPENTKKRTFVAADGKSYQVPMLAQLSVFRCGSTSAPNDLWYNFIELPYHGCSISMLIALPTESSTPLSAIIPHISTKTIDSWMSIMVPKRVQVILPKFTAVAQTDLKEPLKVLGITDMFDSSKANFAKITTGSENLHVSHILQKAKIEVSEDGTKASAATTAILIARSSPPWFIVDRPFLFFIRHNPTGAVLFMGQINKP
modifications: PEG
B4: S263C (conjugate, UniProt P07093 20-398, looked up, variant S263C)
Glia-derived nexin: SHFNPLSLEELGSNTGIQVFNQIVKSRPHDNIVISPHGIASVLGMLQLGADGRTKKQLAMVMRYGVNGVGKILKKINKAIVSKKNKDIVTVANAVFVKNASEIEVPFVTRNKDVFQCEVRNVNFEDPASACDSINAWVKNETRDMIDNLLSPDLIDGVLTRLVLVNAVYFKGLWKSRFQPENTKKRTFVAADGKSYQVPMLAQLSVFRCGSTSAPNDLWYNFIELPYHGESISMLIALPTESSTPLSAIIPHISTKTIDSWMCIMVPKRVQVILPKFTAVAQTDLKEPLKVLGITDMFDSSKANFAKITTGSENLHVSHILQKAKIEVSEDGTKASAATTAILIARSSPPWFIVDRPFLFFIRHNPTGAVLFMGQINKP
modifications: PEG
B5: D192C (conjugate, UniProt P07093 20-398, looked up, variant D192C)
Glia-derived nexin: SHFNPLSLEELGSNTGIQVFNQIVKSRPHDNIVISPHGIASVLGMLQLGADGRTKKQLAMVMRYGVNGVGKILKKINKAIVSKKNKDIVTVANAVFVKNASEIEVPFVTRNKDVFQCEVRNVNFEDPASACDSINAWVKNETRDMIDNLLSPDLIDGVLTRLVLVNAVYFKGLWKSRFQPENTKKRTFVAACGKSYQVPMLAQLSVFRCGSTSAPNDLWYNFIELPYHGESISMLIALPTESSTPLSAIIPHISTKTIDSWMSIMVPKRVQVILPKFTAVAQTDLKEPLKVLGITDMFDSSKANFAKITTGSENLHVSHILQKAKIEVSEDGTKASAATTAILIARSSPPWFIVDRPFLFFIRHNPTGAVLFMGQINKP
modifications: PEG
B6: C117S;C131S;C209S (protein, UniProt P07093 20-398, looked up, variant C117S C131S C209S)
Glia-derived nexin: SHFNPLSLEELGSNTGIQVFNQIVKSRPHDNIVISPHGIASVLGMLQLGADGRTKKQLAMVMRYGVNGVGKILKKINKAIVSKKNKDIVTVANAVFVKNASEIEVPFVTRNKDVFQSEVRNVNFEDPASASDSINAWVKNETRDMIDNLLSPDLIDGVLTRLVLVNAVYFKGLWKSRFQPENTKKRTFVAADGKSYQVPMLAQLSVFRSGSTSAPNDLWYNFIELPYHGESISMLIALPTESSTPLSAIIPHISTKTIDSWMSIMVPKRVQVILPKFTAVAQTDLKEPLKVLGITDMFDSSKANFAKITTGSENLHVSHILQKAKIEVSEDGTKASAATTAILIARSSPPWFIVDRPFLFFIRHNPTGAVLFMGQINKP
B7: H252C (conjugate, UniProt P07093 20-398, looked up, variant H252C)
Glia-derived nexin: SHFNPLSLEELGSNTGIQVFNQIVKSRPHDNIVISPHGIASVLGMLQLGADGRTKKQLAMVMRYGVNGVGKILKKINKAIVSKKNKDIVTVANAVFVKNASEIEVPFVTRNKDVFQCEVRNVNFEDPASACDSINAWVKNETRDMIDNLLSPDLIDGVLTRLVLVNAVYFKGLWKSRFQPENTKKRTFVAADGKSYQVPMLAQLSVFRCGSTSAPNDLWYNFIELPYHGESISMLIALPTESSTPLSAIIPCISTKTIDSWMSIMVPKRVQVILPKFTAVAQTDLKEPLKVLGITDMFDSSKANFAKITTGSENLHVSHILQKAKIEVSEDGTKASAATTAILIARSSPPWFIVDRPFLFFIRHNPTGAVLFMGQINKP
modifications: PEG

Biological target: Thrombin (Homo sapiens, UniProt P00734)
Assay: thrombin inhibition activity assay (D.4), specific activity
Type: biochemical
Details: for ACTIVITY, AFTER PEG MODIFICATION: after cysteine-PEGylation with Maleimido-PEG; for REL TO WT, BEFORE PEG MODIFICATION: activity relative to wild type PN-1; for REL TO ACTIVITY BEFORE PEG, AFTER PEG MODIFICATION: cysteine-PEGylated protein relative to same protein before PEGylation; for REL TO WT, AFTER PEG MODIFICATION: cysteine-PEGylated protein relative to wild type PN-1
Procedure: Refolded or soluble protein was tested for capacity to inhibit thrombin in a standard assay. Briefly, serial 2-fold dilutions of PN-1 variant were added to microtiter plate wells (50 μl/well), followed by 50 μl of a 30 μg/ml heparin solution, followed by 1 NIH unit of thrombin in 50 μl. These were allowed to incubate at 25° C. for 15 minutes. Residual thrombin activity was measured by the addition of 50 μl S-2238 (Kabi Pharmaceuticals) at 0.625 mg/ml. PN-1 variants were tested for their ability to inhibit urokinase using the substrate S-2444, plasmin using the substrate S-2390, tPA using the substrate S2288, Factor Xa using the substrate S-2222 or S-2765, kallikrein using the substrate S-2302, human neutrophil elastase using s-AAPV-pna (Sigma), cathepsin G using s-AAPF-pna (Sigma) in a similar manner, with or without the addition of heparin.
Each of the PN-1 site-directed mutant proteins, as well as wild type PN-1, were modified by cysteine-PEGylation using the protocol described in F.2. The activity of wild type PN-1, each of the PN-1 site-directed mutants, and the cysteine-PEGylated wild type and mutant proteins was determined using the assay described in D.4.

| Molecule | ACTIVITY, AFTER PEG MODIFICATION | SPECIFIC ACTIVITY, BEFORE PEG MODIFICATION | REL TO WT, BEFORE PEG MODIFICATION | REL TO ACTIVITY BEFORE PEG, AFTER PEG MODIFICATION | REL TO WT, AFTER PEG MODIFICATION |
| --- | --- | --- | --- | --- | --- |
| B1 | 0.125 NIH units of thrombin inhibited per μg PN1 (variant) | 0.063 NIH units of thrombin inhibited per μg PN1 (variant) | 0.125 | 2 | 0.25 |
| B2 | 0.17 NIH units of thrombin inhibited per μg PN1 (variant) | 0.056 NIH units of thrombin inhibited per μg PN1 (variant) | 0.11 | 3 | 0.33 |
| B3 | 0.20 NIH units of thrombin inhibited per μg PN1 (variant) | 0.071 NIH units of thrombin inhibited per μg PN1 (variant) | 0.14 | 2.8 | 0.40 |
| B4 | 0.093 NIH units of thrombin inhibited per μg PN1 (variant) | 0.05 NIH units of thrombin inhibited per μg PN1 (variant) | 0.1 | 1.86 | 0.19 |
| B5 | 0.91 NIH units of thrombin inhibited per μg PN1 (variant) | 0.045 NIH units of thrombin inhibited per μg PN1 (variant) | 0.091 | 2 | 0.18 |
| B6 | 0.50 NIH units of thrombin inhibited per μg PN1 (variant) | 0.050 NIH units of thrombin inhibited per μg PN1 (variant) |  |  |  |
| B7 | 0.25 NIH units of thrombin inhibited per μg PN1 (variant) | 0.10 NIH units of thrombin inhibited per μg PN1 (variant) | 0.20 | 2.5 | 0.50 |
